# T1: CXCR2 (Homo sapiens, UniProt P25025)
# T1 construct: expressed in transfected cells
# T1 sequence (P25025 1-360): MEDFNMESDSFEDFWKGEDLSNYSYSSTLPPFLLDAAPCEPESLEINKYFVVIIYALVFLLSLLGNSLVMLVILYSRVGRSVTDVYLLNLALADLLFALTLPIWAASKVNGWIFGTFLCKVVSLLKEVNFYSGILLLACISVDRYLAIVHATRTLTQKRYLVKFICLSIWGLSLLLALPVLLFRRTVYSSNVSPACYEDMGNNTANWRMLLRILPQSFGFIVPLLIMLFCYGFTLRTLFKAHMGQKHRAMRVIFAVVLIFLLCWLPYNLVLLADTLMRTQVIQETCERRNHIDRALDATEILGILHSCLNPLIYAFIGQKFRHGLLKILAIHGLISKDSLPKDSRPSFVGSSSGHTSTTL
# Assays:
# [1] = test system: primary human effector T cells; assay: T-cell arrest under flow on aortic endothelial cells; format: cell-based; settings: immobilized on aortic endothelial cells
# Protocol: (§1) Arrest of calcein-AM (Molecular Probes)-labeled monocytes, T cells and L1.2 transfectants was quantified in parallel-wall chambers in flow (1.5 dynes/cm^2, 5 min) (Schober, A., at al. (2004) Circulation 109, 380-385; Osterman, G., at al. (2002) Nat. Immunol. 3, 151-158; Weber, C., at al. (1996) J. Cell Biol. 134, 1063-1073).
# [2] = test system: Apoe−/− mice
# [3] = target: CXCR4-bearing Jurkat cells (Homo sapiens, UniProt P61073)
# [4] = test system: MonoMac6 cells; assay: Monocytic cell arrest under flow on CHO/ICAM-1 cells; format: cell-based; settings: exposure 2 h, flow conditions
# Protocol: as §1
# [5] = test system: primary human monocytes; assay: Monocyte arrest under flow on human aortic endothelial cells; format: cell-based; settings: endothelial cells pretreated 2 h, flow conditions
# Protocol: as §1
# [6] = test system: primary human monocytes; assay: Transwell chemotaxis of monocytes; format: cell-based
# Protocol: (§2) Pore sizes and intervals were 5 μm and 3 h (monocytes), 3 μm and 1.5 h (T cells), and […] and 1 h (neutrophils).
# [7] = test system: primary CD3+ T lymphocytes; assay: Transwell chemotaxis of T cells; format: cell-based, human; settings: CD3+ T lymphocytes devoid of CXCR1 and CXCR2
# Protocol: as §2
# [8] = target: T2, CCR5 (Homo sapiens, UniProt P51681); assay: CCR5 internalization in L1.2 CCR5 transfectants; format: cell-based
# T2 construct: host or cells: L1.2 pre-B lymphoma cells
# Protocol: (§3) Internalization was calculated relative to surface expression of buffer-treated cells (100% control) and isotype control staining (0% control): geometric MFI[experimental]−MFI[0% control]/MFI[100% control]−MFI[0% control]×100.
# [9] = test system: postcapillary venules of cremaster muscle; assay: Cremaster microcirculation model, intravital microscopy; format: in vivo, mouse; settings: MIF injected adjacent to the muscle
# Protocol: After 4 h, intravital microscopy (Zeiss Axioplan; 20×) was performed in postcapillary venules (Gregory, J. L., at al. (2004) Arthritis Rheum. 50, 3023-3034; Keane, M. P., at al. (2004) J. Immunol. 172, 2853-2860). Adhesion was measured as leukocytes stationary for more than 30 s, emigration as the number of extravascular leukocytes per field.
# [10] = test system: αLβ2 (LFA-1); assay: αLβ2 integrin activation assay (327C reporter antibody, flow cytometry); format: cell-based; settings: MonoMac6 cells and human blood monocytes; persisted over 30 min
# Description: LFA-1 activation analyzed by flow cytometry is reported as the increase in mean fluorescent intensity (MFI) or relative to the positive control (Shamri, R., at al. (2005) Nat. Immunol. 6, 497-506).
# [11] = target: T1, CXCR2; assay: CXCR2 internalization assay, HEK293-CXCR2; format: cell-based; settings: FACS of surface CXCR2, stable HEK293 transfectants
# Protocol: as §3
# [12] = test system: mice with wild-type bone marrow; assay: Model of acute peritonitis (MIF-induced); format: in vivo, mouse; settings: after 4 h
# Protocol: After 4 h, peritoneal lavage was performed and Gr-1^+CD115^−F4/80^− neutrophils were quantified by flow cytometry using the relevant conjugated antibodies.
# [13] = test system: CXCR2; assay: Calcium mobilization in L1.2 CXCR2 transfectants; format: cell-based
# [14] = test system: primary human neutrophils; assay: Calcium mobilization in neutrophils (Fluo-4 AM); format: cell-based
# [15] = test system: human aortic (or venous) endothelial cells; assay: Real-time PCR and ELISA of arrest chemokines in endothelial cells; format: cell-based; settings: 2-h-long preincubation
# Protocol: RNA was reverse-transcribed using oligo-dT primers. RTPCR was performed using QuantiTect Kit with SYBRGreen (Qiagen), specific primers and an MJ Opticon2 (Biozym). CXCL8 was quantified by Quantikine ELISA (R&D).
# [16] = test system: primary human neutrophils; assay: Transwell chemotaxis of neutrophils; format: cell-based
# Protocol: as §2
# [17] = 12 weeks, compared with vehicle controls
# Sequence of CXCR4-bearing Jurkat cells (P61073 whole entry): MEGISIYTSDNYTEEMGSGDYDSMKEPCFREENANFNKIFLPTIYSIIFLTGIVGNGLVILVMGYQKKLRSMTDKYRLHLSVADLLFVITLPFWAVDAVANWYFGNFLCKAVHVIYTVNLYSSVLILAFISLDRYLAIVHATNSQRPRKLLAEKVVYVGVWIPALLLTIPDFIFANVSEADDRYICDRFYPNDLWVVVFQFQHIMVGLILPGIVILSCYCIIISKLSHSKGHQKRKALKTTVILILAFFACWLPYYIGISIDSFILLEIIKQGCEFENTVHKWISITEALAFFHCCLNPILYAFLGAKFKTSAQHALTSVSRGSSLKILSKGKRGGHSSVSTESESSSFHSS
# T2 sequence (P51681 whole entry): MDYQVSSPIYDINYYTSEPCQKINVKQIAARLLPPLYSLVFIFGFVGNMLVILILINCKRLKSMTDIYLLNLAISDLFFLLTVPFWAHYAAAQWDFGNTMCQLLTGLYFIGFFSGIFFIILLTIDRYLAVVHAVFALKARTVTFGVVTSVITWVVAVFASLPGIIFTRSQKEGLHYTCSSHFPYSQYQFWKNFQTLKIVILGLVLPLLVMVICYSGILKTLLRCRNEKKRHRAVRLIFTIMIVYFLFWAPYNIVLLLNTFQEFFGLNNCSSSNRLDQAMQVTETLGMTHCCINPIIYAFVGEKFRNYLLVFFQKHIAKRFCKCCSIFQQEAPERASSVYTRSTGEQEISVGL
molecule,measurement,setting,value
CXCL12: Chemokine from PeproTech; known CXCR4 ligand and T-cell chemoattractant [reference compound],arrest of primary human effector T cells,[1],triggered the arrest
c1ccc(CNCc2ccc(CN3CCCNCCNCCCNCC3)cc2)nc1 [AMD3465],lesion formation in oil red O-stained aortic root sections,[2]; [17],significantly exacerbates lesion formation
same,lesion formation in thoracoabdominal aortas prepared en face,[2]; [17],significantly exacerbates lesion formation
same,relative number of circulating neutrophils,[2]; further increases during disease progression,expansion in the relative number of circulating neutrophils
same,peripheral blood leukocytes,"[2]; within 2 days, sustained throughout the study period",pronounced peripheral blood leukocytosis
same,effect on specific binding of fluorescein-MIF to CXCR4-bearing Jurkat cells,[3],inhibited
CXCL8: Chemokine from PeproTech; cognate CXCR2 ligand [reference compound],monocytic cell arrest on pretreated CHO/ICAM-1 transfectants,[4],increased monocytic cell arrest
"MIF: Recombinant MIF, expressed and purified as described; pro-inflammatory cytokine, ligand for CXCR2, CXCR4 and CD74 (protein) PMFIVNTNVPRASVPDGFLSELTQQLAQATGKPPQYIAVHVVPDQLMAFGGSSEPCALCSLHSIGKIGGAQNRSYSKLLCGLLAERLRISPDRVYINYYDMNAANVGWNNSTFA",arrest of primary human monocytes on pretreated endothelial cells,[5],substantially increased
same,MIF concentration that induced optimal chemotaxis,[6],2 to 4 nM
same,optimum concentration of bell-shaped dose-response curve of monocyte migration,[6]; MIF in lower chamber,25 to 50 ng/mL
same,induction of T-cell transmigration,[7],dose-dependently induced transmigration
same,monocytic cell arrest on pretreated CHO/ICAM-1 transfectants,[4],increased monocytic cell arrest
same,CCR5 internalization,[8],unable to induce CCR5 internalization
same,arrest of primary human effector T cells,[1],triggered the arrest
same,leukocyte adhesion and emigration in postcapillary venules,[9],marked increase
same,earliest time of αLβ2 activation after exposure,[10],1 min
same,CXCR2 internalization,[11],induced CXCR2 internalization
same,neutrophil recruitment after intraperitoneal injection,[12],elicited neutrophil recruitment
same,calcium influx in CXCR2 transfectants,[13],"dose-dependently induced calcium influx, and was slightly less potent and effective than CXCL8 or CXCL7"
same,calcium influx in neutrophils,[14],induced calcium influx
same,"upregulation of arrest chemokines known to engage CXCR2 (CXCL1, CXCL8)",[15],failed to upregulate
same,chemotactic activity on neutrophils,[16],exerted CXCR2- but not CXCR1-mediated chemotactic activity

# Reference: patent publication US20110262386A1, “METHODS OF TREATING INFLAMMATION” (CAROLUS THERPEUTICS, INC., priority 2008, published 2011)
